# B1: Probable RNA-binding protein EIF1AD (Homo sapiens), Q8N9N8 (parent)
# chain: MSQATKRKHVVKEVLGEHIVPSDQQQIVRVLRTPGNNLHEVETAQGQRFLVSMPSKYRKNIWIKRGDFLIVDPIEEGEKVKAEISFVLCKDHVRSLQKEGFWPEAFSEVAEKHNNRNRQTQPELPAEPQLSGEESSSEDDSDLFVNTNRRQYHESEEESEEEEAA
# partner: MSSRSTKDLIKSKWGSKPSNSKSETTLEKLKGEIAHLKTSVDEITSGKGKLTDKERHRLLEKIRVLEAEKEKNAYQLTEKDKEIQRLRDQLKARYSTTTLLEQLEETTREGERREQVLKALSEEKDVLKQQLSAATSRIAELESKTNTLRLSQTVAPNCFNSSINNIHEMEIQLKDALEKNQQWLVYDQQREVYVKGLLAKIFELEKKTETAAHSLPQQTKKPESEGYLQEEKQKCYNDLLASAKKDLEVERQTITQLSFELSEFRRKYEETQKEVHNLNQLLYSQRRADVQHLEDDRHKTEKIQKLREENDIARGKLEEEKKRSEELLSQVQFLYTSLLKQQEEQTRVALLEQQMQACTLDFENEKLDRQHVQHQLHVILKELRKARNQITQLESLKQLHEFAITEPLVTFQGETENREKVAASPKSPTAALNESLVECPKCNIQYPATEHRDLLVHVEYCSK
# B2: Calcium-binding and coiled-coil domain-containing protein 2 (Homo sapiens), Q13137 (parent)
# chain: MEETIKDPPTSAVLLDHCHFSQVIFNSVEKFYIPGGDVTCHYTFTQHFIPRRKDWIGIFRVGWKTTREYYTFMWVTLPIDLNNKSAKQQEVQFKAYYLPKDDEYYQFCYVDEDGVVRGASIPFQFRPENEEDILVVTTQGEVEEIEQHNKELCKENQELKDSCISLQKQNSDMQAELQKKQEELETLQSINKKLELKVKEQKDYWETELLQLKEQNQKMSSENEKMGIRVDQLQAQLSTQEKEMEKLVQGDQDKTEQLEQLKKENDHLFLSLTEQRKDQKKLEQTVEQMKQNETTAMKKQQELMDENFDLSKRLSENEIICNALQRQKERLEGENDLLKRENSRLLSYMGLDFNSLPYQVPTSDEGGARQNPGLAYGNPYSGIQESSSPSPLSIKKCPICKADDICDHTLEQQQMQPLCFNCPICDKIFPATEKQIFEDHVFCHSL
# partner: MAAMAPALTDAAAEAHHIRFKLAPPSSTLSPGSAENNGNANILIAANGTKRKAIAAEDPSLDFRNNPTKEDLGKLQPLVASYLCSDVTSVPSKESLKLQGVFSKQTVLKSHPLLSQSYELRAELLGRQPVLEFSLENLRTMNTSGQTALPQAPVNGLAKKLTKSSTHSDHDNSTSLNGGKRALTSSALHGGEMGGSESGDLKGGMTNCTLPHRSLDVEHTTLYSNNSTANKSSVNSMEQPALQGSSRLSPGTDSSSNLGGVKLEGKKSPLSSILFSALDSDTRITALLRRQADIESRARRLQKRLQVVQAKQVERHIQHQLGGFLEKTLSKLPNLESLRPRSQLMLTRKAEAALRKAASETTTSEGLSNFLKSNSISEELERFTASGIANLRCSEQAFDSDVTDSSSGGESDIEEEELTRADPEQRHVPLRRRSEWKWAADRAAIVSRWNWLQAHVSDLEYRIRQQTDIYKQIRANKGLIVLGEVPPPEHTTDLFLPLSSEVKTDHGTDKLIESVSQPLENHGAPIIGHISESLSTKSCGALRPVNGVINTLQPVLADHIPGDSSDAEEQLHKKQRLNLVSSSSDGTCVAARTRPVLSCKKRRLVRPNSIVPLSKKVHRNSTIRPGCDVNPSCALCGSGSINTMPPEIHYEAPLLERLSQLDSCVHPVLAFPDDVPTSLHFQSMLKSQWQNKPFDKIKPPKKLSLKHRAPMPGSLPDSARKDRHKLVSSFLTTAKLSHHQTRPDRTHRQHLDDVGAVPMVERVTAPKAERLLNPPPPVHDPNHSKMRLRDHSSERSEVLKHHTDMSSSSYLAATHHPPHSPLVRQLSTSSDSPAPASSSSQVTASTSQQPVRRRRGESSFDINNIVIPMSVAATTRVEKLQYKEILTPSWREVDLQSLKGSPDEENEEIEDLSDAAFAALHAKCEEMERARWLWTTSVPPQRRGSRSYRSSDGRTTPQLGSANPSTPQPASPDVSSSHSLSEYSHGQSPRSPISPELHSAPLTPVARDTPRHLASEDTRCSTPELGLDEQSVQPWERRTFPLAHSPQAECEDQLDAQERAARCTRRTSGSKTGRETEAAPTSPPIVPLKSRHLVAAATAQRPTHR
# B3: Tyrosine-protein kinase FRK (Homo sapiens), P42685 (parent)
# chain: MSNICQRLWEYLEPYLPCLSTEADKSTVIENPGALCSPQSQRHGHYFVALFDYQARTAEDLSFRAGDKLQVLDTLHEGWWFARHLEKRRDGSSQQLQGYIPSNYVAEDRSLQAEPWFFGAIGRSDAEKQLLYSENKTGSFLIRESESQKGEFSLSVLDGAVVKHYRIKRLDEGGFFLTRRRIFSTLNEFVSHYTKTSDGLCVKLGKPCLKIQVPAPFDLSYKTVDQWEIDRNSIQLLKRLGSGQFGEVWEGLWNNTTPVAVKTLKPGSMDPNDFLREAQIMKNLRHPKLIQLYAVCTLEDPIYIITELMRHGSLQEYLQNDTGSKIHLTQQVDMAAQVASGMAYLESRNYIHRDLAARNVLVGEHNIYKVADFGLARVFKVDNEDIYESRHEIKLPVKWTAPEAIRSNKFSIKSDVWSFGILLYEIITYGKMPYSGMTGAQVIQMLAQNYRLPQPSNCPQQFYNIMLECWNAEPKERPTFETLRWKLEDYFETDSSYSDANNFIR
# partner: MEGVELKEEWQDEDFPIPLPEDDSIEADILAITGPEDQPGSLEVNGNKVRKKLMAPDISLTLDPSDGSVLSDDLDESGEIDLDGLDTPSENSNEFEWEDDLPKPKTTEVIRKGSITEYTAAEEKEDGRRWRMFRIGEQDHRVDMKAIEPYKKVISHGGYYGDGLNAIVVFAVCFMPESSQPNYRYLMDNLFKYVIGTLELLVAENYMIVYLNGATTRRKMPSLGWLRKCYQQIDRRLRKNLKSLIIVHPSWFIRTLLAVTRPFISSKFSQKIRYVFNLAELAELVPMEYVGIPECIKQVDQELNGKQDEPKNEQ
# B4: ATPase PAAT (Homo sapiens), Q9H8K7 (parent)
# chain: METRTEDGGLTRRPTLASSWDVAGGALTHSLLLTRAGLGPGDFDWEELLAPPAPGQDLVILKRNHNNKDENPCFLYLRCGPDGGEEIASIGILSSARNMEVYLGEEYCGTSRGKNVCTVLDDSEHEKIILYKKNLKLESSTHACKIKLLSFGERQCVFISKVVVHMRSVFANSSTSSPALGSRIDLDKVQTIMESMGSKLSPGAQQLMDMVRCQQRNCIPIGEQLQSVLGNSGYKHMIGLQSSSTLGTLNKSSSTPFPFRTGLTSGNVTENLQTYIDKSTQLPGGENSTKLDECKVMPQNHSFLENDLKNAMASFLPKKVSDNSNIPNSELLPFLQNLCSQVNHLHVGNKTECQENITKHGERILGVGMEEQSICSYLEKILSKNMELMEKKLMDYIDQRIHELQEHIDDKIALLLDLLQNPNSPPTGIPLRHYDSGERLSNGER
# partner: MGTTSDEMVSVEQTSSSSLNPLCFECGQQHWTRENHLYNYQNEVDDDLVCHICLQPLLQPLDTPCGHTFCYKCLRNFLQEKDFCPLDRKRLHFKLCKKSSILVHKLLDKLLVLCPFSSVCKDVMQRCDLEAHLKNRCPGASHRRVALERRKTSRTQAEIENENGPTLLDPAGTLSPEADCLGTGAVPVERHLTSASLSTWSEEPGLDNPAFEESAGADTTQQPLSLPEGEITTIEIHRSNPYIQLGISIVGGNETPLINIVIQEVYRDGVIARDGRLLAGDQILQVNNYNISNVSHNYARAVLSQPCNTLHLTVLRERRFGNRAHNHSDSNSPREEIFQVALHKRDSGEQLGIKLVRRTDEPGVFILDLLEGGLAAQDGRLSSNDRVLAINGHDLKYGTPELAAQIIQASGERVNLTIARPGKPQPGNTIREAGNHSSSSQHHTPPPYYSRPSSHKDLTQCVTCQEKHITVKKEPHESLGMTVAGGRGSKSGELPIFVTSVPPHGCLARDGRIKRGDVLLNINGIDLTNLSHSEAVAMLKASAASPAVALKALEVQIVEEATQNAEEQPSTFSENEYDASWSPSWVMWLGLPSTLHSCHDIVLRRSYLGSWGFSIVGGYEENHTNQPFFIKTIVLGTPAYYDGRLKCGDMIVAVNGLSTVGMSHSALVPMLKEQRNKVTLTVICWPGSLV
# Variants of: B1
# Conditions: with cep55_human CEP55, Q53EZ4
row,Variant,effect of a mutation on the interaction
1,R48C,with no effect

# Variants of: B2
# Conditions: with kanl1_human KANSL1, Q7Z3B3
row,Variant,effect of a mutation on the interaction
1,P389A,with no effect
2,T273A,with no effect

# Variants of: B3
# Conditions: with bnip2_human BNIP2, Q12982
row,Variant,effect of a mutation on the interaction
1,G122R,disrupting interaction strength

# Variants of: B4
# Conditions: with lnx2_human LNX2, Q8N448
row,Variant,effect of a mutation on the interaction
1,G8R,with no effect
